Consider 63 sequences from the supplement of paper PMC7877785.

The nature of this series: self-splicing fitness, log relative to wild type (ln ratio); higher = more splicing; Tetrahymena group I intron in knt gene, E. coli kanamycin selection, DiMSum; sequences stand for … in CUCUCU…GGAGGGAAAAGUUAUCAGGCAUGCACCUGGUAGCUAGUCUUUAAACCAAUAGAUUGCAUCGGUUUAAAAGGCAAGACCGUCAAAUUGCGGGAAAGGGGUCAACAGCCGUUCAGUACCAAGUCUCAGGGGAAACUUUGAGAUGGCCUUGCAAAGGGUAUGGUAAUAAGCUGACGGACAUGGUCCUAACCACGCAGCCAAGUCCUAAGUCAACAGAUCUUCUGUUGAUAUGGAUGCAGUUCACAGACUAAAUGUCGGUCGGGGAAGAUGUAUUCUUCUCAUAAGAUAUAGUCGGACCUCUCCUUAAUGGGAGCUAGCGGAUGAAGUGAUGCAACACUGGAGCCGCUGGGAACUAAUUUGUAUGCGAAAGUAUAUUGAUUAGUUUUGGAGUACUCGUGGUCG
The method in brief: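 Colonies from six replicate transformations of E. coli BL21(DE3) were pooled and amplicon-sequenced on an Illumina HiSeq 2500. The library placed an intron with all eight P1ex-region nucleotides randomised inside the knt kanamycin-resistance gene on pET-22b(+), and cells grew overnight at 37°C or 30°C on LB agar with or without 25 μg/mL kanamycin (plus 100 μg/mL carbenicillin, 50 μM IPTG, 0.2% rhamnose). Fitness is the DiMSum error-weighted combination of wild-type-normalised replicate fold changes, kanamycin versus none.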

± gives the uncertainty stated by the source.

Turning to GACCAGCAAUAUUACGCUGU, the “self-splicing fitness (ln)” value is, setting by setting: (30 °C) -3.34 ± 0.15; (37 °C) -1.54 ± 0.095. For the sequence UAUAAGCAAUAUUACGGUCC, under “30 °C”, the “self-splicing fitness (ln)” value is -0.922 ± 0.44. Regarding GCGUAGCAAUAUUACGAGUU, the “self-splicing fitness (ln)” value reads like this: (30 °C) -2.87 ± 0.092; (37 °C) -0.803 ± 0.097. Consider GACCAGCAAUAUUACGAAUC, for which the “self-splicing fitness (ln)” value (30 °C) is -0.584 ± 0.096 and the “self-splicing fitness (ln)” value (37 °C) is -0.196 ± 0.1. For UUCAAGCAAUAUUACGAUAU, the “self-splicing fitness (ln)” value runs as follows: (30 °C) -2.7 ± 0.18; (37 °C) -1.42 ± 0.18. As to GUGGAGCAAUAUUACGCAAU, the “self-splicing fitness (ln)” value by setting is: (30 °C) -1.83 ± 0.1; (37 °C) -1.25 ± 0.13. On the same counts, the results for UAAGAGCAAUAUUACGCAAG are -3.12 ± 0.44 and -1.51 ± 0.45. On the same counts, the results for UAGAAGCAAUAUUACGCAAA are -1.24 ± 0.22 and -1.03 ± 0.31. On the same counts, the results for AUAAAGCAAUAUUACGCGAG are -1.08 ± 0.075 and 0.0257 ± 0.095. On to UCUGAGCAAUAUUACGGGCU, for which the “self-splicing fitness (ln)” value (37 °C) is -3.79 ± 0.42.

For ACGGAGCAAUAUUACGUUAA, the “self-splicing fitness (ln)” value (30 °C) is -2.65 ± 0.23 and the “self-splicing fitness (ln)” value (37 °C) is -3.13 ± 0.47.

Regarding AACUAGCAAUAUUACGCACC, the “self-splicing fitness (ln)” value reads like this: (30 °C) 0.625 ± 0.17; (37 °C) -1.48 ± 0.25. As for CAGCAGCAAUAUUACGUUCC, the “self-splicing fitness (ln)” value (37 °C) is -2.13 ± 0.25.

Turning to AGUAAGCAAUAUUACGGCGG, the “self-splicing fitness (ln)” value reads like this: (30 °C) -2.43 ± 0.16; (37 °C) -1.66 ± 0.19. As to UCUCAGCAAUAUUACGCACC, the “self-splicing fitness (ln)” value (30 °C) was -2.18 ± 0.42. On to UUUCAGCAAUAUUACGGAAU, for which the “self-splicing fitness (ln)” value by setting is: (30 °C) -3.77 ± 0.23; (37 °C) -2 ± 0.2. As for GUGCAGCAAUAUUACGAGUU, the “self-splicing fitness (ln)” value is -2.49 ± 0.15 (30 °C) and -1.62 ± 0.15 (37 °C).

For the sequence UCUCAGCAAUAUUACGGUAG, the “self-splicing fitness (ln)” value reads like this: (30 °C) -2.3 ± 0.098; (37 °C) -1.99 ± 0.15. For CCCCAGCAAUAUUACGCAUC, the “self-splicing fitness (ln)” value was -3.84 ± 0.31 (30 °C) and -2.68 ± 0.3 (37 °C). For ACCCAGCAAUAUUACGUUUU, the “self-splicing fitness (ln)” value is -1.41 ± 0.048 (30 °C) and -0.336 ± 0.066 (37 °C). Take AAACAGCAAUAUUACGGGCG: the “self-splicing fitness (ln)” value by setting is: (30 °C) -2.12 ± 0.09; (37 °C) -1.41 ± 0.12.

In the case of CCCGAGCAAUAUUACGAUAU, the “self-splicing fitness (ln)” value was -4.76 ± 0.45 (30 °C) and -2.2 ± 0.22 (37 °C). For UAGUAGCAAUAUUACGGGCG, the “self-splicing fitness (ln)” value by setting is: (30 °C) -0.694 ± 0.14; (37 °C) -0.395 ± 0.12. As to GCUAAGCAAUAUUACGGGUA, the “self-splicing fitness (ln)” value by setting is: (30 °C) -1.32 ± 0.097; (37 °C) 0.109 ± 0.09. As to ACUAAGCAAUAUUACGGAGA, the “self-splicing fitness (ln)” value is -1.36 ± 0.23 (30 °C) and -3.35 ± 0.33 (37 °C). With AAAGAGCAAUAUUACGAUUG, the “self-splicing fitness (ln)” value runs as follows: (30 °C) -4.1 ± 0.24; (37 °C) -2.29 ± 0.21. As to UGCGAGCAAUAUUACGGGUC, the “self-splicing fitness (ln)” value is, setting by setting: (30 °C) -4.21 ± 0.27; (37 °C) -2.72 ± 0.3. On the same counts, the results for UACCAGCAAUAUUACGGCGU are -0.619 ± 0.055 and -0.341 ± 0.072. Regarding AUAAAGCAAUAUUACGUUUA, the “self-splicing fitness (ln)” value by setting is: (30 °C) -0.935 ± 0.065; (37 °C) -0.201 ± 0.08. As to GGUGAGCAAUAUUACGUACG, the “self-splicing fitness (ln)” value (30 °C) is -0.28 ± 0.23 and the “self-splicing fitness (ln)” value (37 °C) is -0.434 ± 0.25.

Take GUAUAGCAAUAUUACGGGAC: the “self-splicing fitness (ln)” value reads like this: (30 °C) -2.88 ± 0.34; (37 °C) -1.07 ± 0.2.

Turning to GGUAAGCAAUAUUACGAUUA, the “self-splicing fitness (ln)” value was -0.734 ± 0.094 (30 °C) and -0.221 ± 0.11 (37 °C). For the sequence CGGAAGCAAUAUUACGCCCC, for the setting “30 °C”, the “self-splicing fitness (ln)” value was -1.49 ± 0.39. On to UUGCAGCAAUAUUACGAGGC, for which the “self-splicing fitness (ln)” value (30 °C) is -3.55 ± 0.23 and the “self-splicing fitness (ln)” value (37 °C) is -2.07 ± 0.22. On the same counts, the results for AUACAGCAAUAUUACGCGCG are -0.869 ± 0.1 and -1.07 ± 0.093. UCAUAGCAAUAUUACGGCUU: the “self-splicing fitness (ln)” value (37 °C) is -1.48 ± 0.26. Consider UGGCAGCAAUAUUACGCCCU, for which the “self-splicing fitness (ln)” value (30 °C) was -0.69 ± 0.27. Turning to AAGGAGCAAUAUUACGUAAA, the “self-splicing fitness (ln)” value by setting is: (30 °C) -2.81 ± 0.32; (37 °C) -0.663 ± 0.24.

In the case of AAGAAGCAAUAUUACGCCCA, the “self-splicing fitness (ln)” value runs as follows: (30 °C) -0.613 ± 0.21; (37 °C) -1.85 ± 0.44. With GCCGAGCAAUAUUACGGCAU, the “self-splicing fitness (ln)” value by setting is: (30 °C) -4.31 ± 0.46; (37 °C) -3.06 ± 0.35. Regarding UCAAAGCAAUAUUACGAUCA, the “self-splicing fitness (ln)” value is, setting by setting: (30 °C) -0.91 ± 0.12; (37 °C) -0.719 ± 0.11.

Take GCCUAGCAAUAUUACGGGAA: the “self-splicing fitness (ln)” value is -0.327 ± 0.091 (30 °C) and 0.158 ± 0.11 (37 °C).

On to UCAGAGCAAUAUUACGCAUU, for which the “self-splicing fitness (ln)” value was -3.35 ± 0.43 (30 °C) and -0.634 ± 0.19 (37 °C).

With AUAGAGCAAUAUUACGAUUU, the “self-splicing fitness (ln)” value is -0.251 ± 0.081 (30 °C) and 0.0148 ± 0.1 (37 °C). For AAACAGCAAUAUUACGUGAU, the “self-splicing fitness (ln)” value by setting is: (30 °C) -2.18 ± 0.053; (37 °C) -1.13 ± 0.072. With UGUCAGCAAUAUUACGGACA, the “self-splicing fitness (ln)” value was -3.1 ± 0.29 (30 °C) and -1.75 ± 0.21 (37 °C).

Turning to UGCGAGCAAUAUUACGCAAG, the “self-splicing fitness (ln)” value (30 °C) is -2.27 ± 0.27. For the sequence ACAUAGCAAUAUUACGAUCG, the “self-splicing fitness (ln)” value runs as follows: (30 °C) 0.0966 ± 0.084; (37 °C) -0.312 ± 0.13. As for ACCUAGCAAUAUUACGACAU, the “self-splicing fitness (ln)” value runs as follows: (30 °C) -0.784 ± 0.011; (37 °C) -0.119 ± 0.032. For the sequence UGCGAGCAAUAUUACGGCUU, the “self-splicing fitness (ln)” value (30 °C) is -1.76 ± 0.2 and the “self-splicing fitness (ln)” value (37 °C) is -2.61 ± 0.33. Regarding AGAGAGCAAUAUUACGUGUU, the “self-splicing fitness (ln)” value (30 °C) was -3.21 ± 0.18 and the “self-splicing fitness (ln)” value (37 °C) was -3.64 ± 0.36.

Consider GUAAAGCAAUAUUACGACUU, for which the “self-splicing fitness (ln)” value reads like this: (30 °C) 0.245 ± 0.1; (37 °C) 0.464 ± 0.12. With AUUUAGCAAUAUUACGUAUC, the “self-splicing fitness (ln)” value (37 °C) was -2.15 ± 0.32. On to GUGCAGCAAUAUUACGAGAU, for which the “self-splicing fitness (ln)” value reads like this: (30 °C) -3.67 ± 0.2; (37 °C) -1.98 ± 0.19. On the same counts, the results for GGAGAGCAAUAUUACGGGAG are -4.1 ± 0.21 and -2.37 ± 0.23. For the sequence UUAAAGCAAUAUUACGGUUU, the “self-splicing fitness (ln)” value by setting is: (30 °C) -2.12 ± 0.075; (37 °C) -1.22 ± 0.097. For UUGUAGCAAUAUUACGGUAU, where the note is “30 °C”, the “self-splicing fitness (ln)” value was -0.659 ± 0.35.

On to CCCAAGCAAUAUUACGUGGG, for which the “self-splicing fitness (ln)” value by setting is: (30 °C) -3.29 ± 0.11; (37 °C) -2.82 ± 0.17. As to UGGAAGCAAUAUUACGGUGC, the “self-splicing fitness (ln)” value is -2.93 ± 0.3 (30 °C) and -2.86 ± 0.43 (37 °C). For the sequence AUGUAGCAAUAUUACGAAAC, the “self-splicing fitness (ln)” value runs as follows: (30 °C) -2.77 ± 0.24; (37 °C) -1.76 ± 0.27.

For the sequence AAAGAGCAAUAUUACGGUUG, the “self-splicing fitness (ln)” value runs as follows: (30 °C) -3.84 ± 0.27; (37 °C) -2.14 ± 0.25. Take AGGUAGCAAUAUUACGACGC: the “self-splicing fitness (ln)” value reads like this: (30 °C) -0.0643 ± 0.017; (37 °C) 0.0178 ± 0.035. GGGAAGCAAUAUUACGUCGU: the “self-splicing fitness (ln)” value reads like this: (30 °C) -0.671 ± 0.16; (37 °C) -0.462 ± 0.16.
